Laboratory results published in article PMC11044963, “Probing the CRL4^DCAF12 interactions with MAGEA3 and CCT5 di-Glu C-terminal degrons” (PNAS Nexus, 2024).
Where no end group is shown, it is not given here. The star is where a group is joined. FITC = O=C1OC2(c3ccc(O)cc3Oc3cc(O)ccc32)c2ccc(NC(=S)*)cc21

B1: FITC-labeled CCT5 C-terminal degron peptide (peptide)
peptide: {FITC}-IRKPGESEE
notes: nine C-terminal residues of T-complex protein 1 subunit epsilon (CCT5); also called CCT5 peptide
B2: unlabeled MAGEA3 C-terminal degron peptide (peptide)
peptide: LHEWVLREGEE
notes: 11 C-terminal residues of melanoma-associated antigen 3 (MAGEA3); also called MAGEA3 peptide
B3: unlabeled CCT5 C-terminal degron peptide (peptide)
peptide: IRKPGESEE
notes: as for B1
B4: FITC-labeled MAGEA3 C-terminal degron peptide (peptide)
peptide: {FITC}-LHEWVLREGEE
notes: as for B2

Legend:
Conditions in all cases: both partners purified
DDB1–DCAF12 complex = DDB1–DCAF12 complex (human, UniProt Q5T6F0 1-453; Q5T6F0 1-453); test: fluorescence polarisation; direct binding; protein titrated from 4 µM in two-fold steps against 20 nM FITC peptide; 20 mM Tris pH 7.5, 150 mM NaCl, 5% glycerol, 0.5 mM TCEP, 0.01% Triton; 45 min at room temperature
DCAF12 (Δ1–78) = biological target: T1, DCAF12 (Δ1–78) (human, UniProt Q5T6F0 79-453); test: as above
T1 construct: DDB1- and CUL4-associated factor 12 (DCAF12), human, residues 79-453 (Δ1-78); also called DCAF12:79-453aa; N-terminally truncated DCAF12; source: Sf9 (baculovirus, pFBOH-MHL), purified (TALON beads, Superdex S200 26/60)

[1] = biological target: T2, biotinylated DCAF12 (Δ1–78) (human, UniProt Q5T6F0 79-453, biotin); test: SPR; biotinylated DCAF12 (Δ1–78) immobilised (~3,200 RU) on a streptavidin chip, Biacore 8K+; peptides injected, 8-point two-fold series from 1 µM; 10 mM HEPES pH 7.4, 150 mM NaCl, 3 mM EDTA, 0.005% P20, 5% glycerol, 2% DMSO; 15 °C; 1:1 Langmuir fit
T2 construct: DDB1- and CUL4-associated factor 12 (DCAF12), human, residues 79-453 (Δ1-78); also called DCAF12:79-453aa; DCAF12 Δ1–78 (pFBD-BirA); source: Sf9 (pFBD-BirA vector), purified (TALON beads, Superdex S200 26/60)

| Binder | Kd (DDB1–DCAF12 complex) | Kd (DCAF12 (Δ1–78)) | Kd [1] |
| --- | --- | --- | --- |
| B1 | 80 nM | 370 nM |  |
| B2 |  |  | 161 nM |
| B3 |  |  | 60 nM |
| B4 | 180 nM | 520 nM |  |
